Like-named read-outs stand apart in the source and are kept apart here. Marks after values point to notes of the source that are not given here.
Columns and labels:
[1] = human
[2] = orthogonalized contingency lattice analysis of AERS reports, reference condition rhabdomyolysis; conditions: for Z (z-score, rhabdomyolysis vs non-rhabdomyolysis randomized datasets): * = significant at Bonferroni-corrected 5% level (|z| > 12); for Nrhabdo (subset size based on the rhabdomyolysis dataset): records listing the drug(s) and excluding the other drugs, NR=11,773
[3] = two-way interaction analysis of AERS records, Infliximab and Methotrexate with pulmonary fibrosis; parameters: species or system patients; conditions: records listing both drugs vs 100 random samples of each reference population; FIG. 6
[4] = N=898 tuberculosis patients vs 200 random samples; Bonferroni-corrected 5% threshold; FIG. 7
[5] = reaction: antinuclear antibody positive
[6] = reaction: crohn's disease aggravated
[7] = reaction: disseminated tuberculosis
[8] = reaction: dna antibody nos positive
[9] = reaction: drug withdrawal syndrome
[10] = reaction: infusion related reaction
[11] = reaction: pharmaceutical product complaint
[12] = reaction: pneumocystis carinii pneumonia
[13] = reaction: pulmonary tuberculosis
[14] = reaction: rheumatoid arthritis aggravated
[15] = reaction: systemic lupus erythematosus

Which “Nref^+ (maximum subset size from the 200 randomly generated non-rhabdomyolysis datasets)” value [1] does the source give for `Cc1ccc(C)c(OCCCC(C)(C)C(=O)O)c1` [Case L, gemfibrozil] here?
The value was 72.

And the “Nref^− (minimum subset size from the 200 randomly generated non-rhabdomyolysis datasets)” value [1]?
The value was 33.

And the “Nrhabdo (subset size based on the rhabdomyolysis dataset)” value (from here on “Nrhabdo”) [1]?
Its value is 2982.

What about the “PChebyshev (probability derived from the Chebyshev inequality)” value (“PChebyshev” for short) [1] of the same molecule?
The value was 6.16 × 10^−6.

And the “Nref^+ (maximum subset size from the 200 randomly generated non-rhabdomyolysis datasets)” value [2]?
The value was 55.

What about the “Nref^− (minimum subset size from the 200 randomly generated non-rhabdomyolysis datasets)” value [2] of the same molecule?
The value was 21.

And the “PChebyshev” value [2]?
Its value is 5.36 × 10^−4.

What about the “association with rhabdomyolysis (in words)” value [2] of the same molecule?
Its value is “only weak evidence”.

And the “Z (z-score, rhabdomyolysis vs non-rhabdomyolysis randomized datasets)” value ([2]; listed as L BP)?
The value was 43*.

And the “Z (z-score, rhabdomyolysis vs non-rhabdomyolysis randomized datasets)” value ([2]; listed as Lopid)?
The value was 43.

What about the “Nrhabdo” value [2] of the same molecule?
The value was 306.

Which “drug interaction with respect to pulmonary fibrosis (in words)” value [3] does the source give for `CN(Cc1cnc2nc(N)nc(N)c2n1)c1ccc(C(=O)N[C@@H](CCC(=O)O)C(=O)O)cc1` [Methotrexate, methotrexate] here?
Its value is “responsible for the large number of cases seen when both drugs are present”.

For infliximab, which “number of adverse events that exceed the Bonferroni-corrected 5% significance threshold” value (AERS) is on record?
The value was 365.

And the Uab (designation: bone & joint tuberculosis)?
Its Uab is 1.09 × 10^5.

What about the Uab (designation: bone amp joint tuberculosis) of the same molecule?
The Uab was 1.34 × 10^6.

What about the Uab (designation: disseminated tuberculosis) of the same molecule?
Its Uab is 6.22 × 10^117.

What about the Uab (designation: lymph node tuberculosis) of the same molecule?
Its Uab is 1.57 × 10^8.

And the Uab (designation: lymph node tuberculosis nos)?
The Uab was 4.98 × 10^15.

What about the Uab (designation: peritoneal tuberculosis) of the same molecule?
The Uab was 8.61 × 10^9.

And the Uab (designation: pulmonary tuberculosis)?
The Uab was 1.11 × 10^109.

And the Uab (designation: spleen tuberculosis)?
Its Uab is 1.47 × 10^12.

What about the Uab (designation: tuberculosis) of the same molecule?
Its Uab is 1.18 × 10^74.

And the Uab (designation: tuberculosis gastrointestinal nos)?
Its Uab is 2.85 × 10^10.

And the Uab (designation: tuberculosis nos)?
Its Uab is >10^308.

And the Uab (designation: tuberculosis reactivated)?
The Uab was 3.40 × 10^6.

What about the NAB [5] of the same molecule?
Its NAB is 65.

And the RAB [5]?
Its RAB is 12.93.

And the “log10 UAB (Statistical Unexpectedness)” value [5]?
Its value is 51.53.

What about the NAB (reaction: basal cell carcinoma) of the same molecule?
Its NAB is 88.

What about the RAB (reaction: basal cell carcinoma) of the same molecule?
Its RAB is 21.17.

What about the “log10 UAB (Statistical Unexpectedness)” value (reaction: basal cell carcinoma) of the same molecule?
Its value is 92.07.

What about the NAB (reaction: crohn's disease) of the same molecule?
Its NAB is 60.

What about the RAB (reaction: crohn's disease) of the same molecule?
The RAB was 11.26.

What about the “log10 UAB (Statistical Unexpectedness)” value (reaction: crohn's disease) of the same molecule?
The value was 43.74.

What about the NAB [6] of the same molecule?
The NAB was 45.

And the RAB [6]?
Its RAB is 22.02.

And the “log10 UAB (Statistical Unexpectedness)” value [6]?
Its value is 48.51.

What about the NAB [7] of the same molecule?
The NAB was 93.

And the RAB [7]?
Its RAB is 30.00.

And the “log10 UAB (Statistical Unexpectedness)” value [7]?
Its value is 117.79.

And the NAB [8]?
The NAB was 59.

What about the RAB [8] of the same molecule?
Its RAB is 24.01.

And the “log10 UAB (Statistical Unexpectedness)” value [8]?
The value was 66.39.

What about the NAB [9] of the same molecule?
The NAB was 2.

What about the RAB [9] of the same molecule?
The RAB was 0.02.

And the “log10 UAB (Statistical Unexpectedness)” value [9]?
The value was 44.68.

What about the NAB (reaction: flushing) of the same molecule?
Its NAB is 254.

What about the RAB (reaction: flushing) of the same molecule?
The RAB was 4.37.

What about the “log10 UAB (Statistical Unexpectedness)” value (reaction: flushing) of the same molecule?
Its value is 83.41.

And the NAB [10]?
The NAB was 63.

And the RAB [10]?
The RAB was 19.32.

And the “log10 UAB (Statistical Unexpectedness)” value [10]?
Its value is 62.93.

What about the NAB (reaction: listeriosis) of the same molecule?
The NAB was 41.

And the RAB (reaction: listeriosis)?
The RAB was 30.26.

And the “log10 UAB (Statistical Unexpectedness)” value (reaction: listeriosis)?
The value was 52.60.

And the NAB (reaction: lupus-like syndrome)?
Its NAB is 179.

What about the RAB (reaction: lupus-like syndrome) of the same molecule?
The RAB was 27.45.

What about the “log10 UAB (Statistical Unexpectedness)” value (reaction: lupus-like syndrome) of the same molecule?
The value was 215.11.

What about the NAB (reaction: medication error) of the same molecule?
Its NAB is 17.

What about the RAB (reaction: medication error) of the same molecule?
Its RAB is 0.07.

And the “log10 UAB (Statistical Unexpectedness)” value (reaction: medication error)?
The value was 75.78.

And the NAB [11]?
The NAB was 6.

And the RAB [11]?
The RAB was 0.05.

And the “log10 UAB (Statistical Unexpectedness)” value [11]?
Its value is 41.69.

And the NAB [12]?
Its NAB is 66.

And the RAB [12]?
Its RAB is 9.58.

And the “log10 UAB (Statistical Unexpectedness)” value [12]?
The value was 43.17.

And the NAB (reaction: pneumonia nos)?
Its NAB is 369.

And the RAB (reaction: pneumonia nos)?
Its RAB is 2.92.

What about the “log10 UAB (Statistical Unexpectedness)” value (reaction: pneumonia nos) of the same molecule?
The value was 71.42.

And the NAB [13]?
Its NAB is 99.

And the RAB [13]?
Its RAB is 23.31.

And the “log10 UAB (Statistical Unexpectedness)” value [13]?
Its value is 109.04.

What about the NAB (reaction: pyrexia) of the same molecule?
The NAB was 596.

And the RAB (reaction: pyrexia)?
Its RAB is 1.80.

What about the “log10 UAB (Statistical Unexpectedness)” value (reaction: pyrexia) of the same molecule?
Its value is 41.44.

And the RAB (reaction: rhabdomyolysis)?
Its RAB is 0.08.

What about the “log10 UAB (Statistical Unexpectedness)” value (reaction: rhabdomyolysis) of the same molecule?
The value was 58.33.

What about the NAB [14] of the same molecule?
Its NAB is 60.

And the RAB [14]?
The RAB was 12.27.

What about the “log10 UAB (Statistical Unexpectedness)” value [14] of the same molecule?
Its value is 46.14.

What about the NAB (reaction: rigors) of the same molecule?
Its NAB is 252.

And the RAB (reaction: rigors)?
Its RAB is 2.65.

And the “log10 UAB (Statistical Unexpectedness)” value (reaction: rigors)?
The value was 41.86.

And the NAB (reaction: sepsis nos)?
The NAB was 268.

And the RAB (reaction: sepsis nos)?
The RAB was 3.28.

And the “log10 UAB (Statistical Unexpectedness)” value (reaction: sepsis nos)?
Its value is 61.87.

What about the NAB [15] of the same molecule?
Its NAB is 192.

And the RAB [15]?
Its RAB is 11.24.

And the “log10 UAB (Statistical Unexpectedness)” value [15]?
The value was 137.84.

What about the NAB (reaction: tuberculosis) of the same molecule?
Its NAB is 64.

And the RAB (reaction: tuberculosis)?
Its RAB is 25.34.

And the “log10 UAB (Statistical Unexpectedness)” value (reaction: tuberculosis)?
The value was 74.07.

What about the NAB (reaction: tuberculosis nos) of the same molecule?
Its NAB is 275.

And the RAB (reaction: tuberculosis nos)?
Its RAB is 29.00.

And the “log10 UAB (Statistical Unexpectedness)” value (reaction: tuberculosis nos)?
The value was greater than 308.00.

What about the “association with tuberculosis by orthogonalized lattice analysis (in words)” value [4] of the same molecule?
Its value is “only strong positive association with tuberculosis”.

Which “Nref^+ (maximum subset size from the 200 randomly generated non-rhabdomyolysis datasets)” value [1] does the source give for `COC(=O)[C@H](c1ccccc1Cl)N1CCc2sccc2C1` [Case P, clopidogrel bisulfate] here?
Its value is 177.

What about the “Nref^− (minimum subset size from the 200 randomly generated non-rhabdomyolysis datasets)” value [1] of the same molecule?
The value was 114.

What about the “Nrhabdo” value [1] of the same molecule?
The value was 465.

What about the “PChebyshev” value [1] of the same molecule?
Its value is 1.43 × 10^−3.

And the “association with rhabdomyolysis (in words)” value [1]?
Its value is “significant at the Bonferroni-corrected 5%”.

And the “z (z-score, rhabdomyolysis vs non-rhabdomyolysis datasets)” value [1]?
Its value is 26*.

What about the “Nref^+ (maximum subset size from the 200 randomly generated non-rhabdomyolysis datasets)” value [2] of the same molecule?
The value was 169.

What about the “Nref^− (minimum subset size from the 200 randomly generated non-rhabdomyolysis datasets)” value [2] of the same molecule?
The value was 109.

And the “PChebyshev” value [2]?
The value was 2.20 × 10^−1.

What about the “Z (z-score, rhabdomyolysis vs non-rhabdomyolysis randomized datasets)” value [2] of the same molecule?
The value was 2.

And the “Nrhabdo” value [2]?
Its value is 163.
